Assay results from the nanobody polyreactivity screen of Harvey et al. (2022).

test: yeast display, Sf9 membrane polyspecificity reagent, FACS + sequencing; frameworks hold sequencing errors
In short: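 Galactose-induced (36–48 hours) yeast carrying a synthetic nanobody display library were exposed to 10% biotinylated, detergent-solubilized Sf9 membrane reagent at 4 °C for 1 hour. FACS followed streptavidin microbead enrichment, using low and high (top ~1%) gates for expression (anti-HA) and reagent binding (streptavidin). Colony PCR, MiSeq 2 × 250 sequencing and CDR-length filtering followed. Labels for polyreactivity reflect the gate of origin.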

Row | Sequence | polyreactivity (PSR sort gate)
1 | QVQLVESGGGLVQAGGSLRLSCAASGRISTFYAMGWYRQAPGKERELVAGIRWRGGSTYYADSVKGRFTISRDNAKNTVYLQMNSLKPEDTAVYYCNAVPRRRRYSRLGYWGQGTQVTVSS | high polyreactivity
2 | QVQLVESGGGLVQAGGSLRLSCAASGRISTTNAMGWYRQAPGKERELVASITSGGGTNYADSVKGRFTISRDNAKNTVYLQMNCLKPEDTAVYYCAKRRSYFLHSYYSYGYWGQGTQVTVSS | high polyreactivity
3 | QVQLVESGGGLVQAGGSLRLSCAASGRISTYNAMGWYIQAPGKERELVASITGGGSTNYADSVKGRFTISRDNAKNTVYLQMNSLKPEDTAVYYCNAKARGQRGYRKIYGYDYWGQGTQVTVSS | high polyreactivity
4 | QVQLVESGGGLVQAGGSLRLSCAASGRISVFNAMGWYRQAPGKDRELVAAITNGGSTNYADSVKVRFTISRDNAKNTVYLLMNSLKPEDTAVYDCAASVGTYAYGRTVYRYDYWGQGTQVTVSS | low polyreactivity
5 | QVQLVESGGGLVQAGGSLRLSCAASGRISVFNAMGWYRQAPGKERELVATITDGGSTYYADSVKGRFTISRDNAKNTVYLQMNSLKPEDTAVYYCAKKQVTTDVSSETFVLEMDYWGQGTQVTVSS | low polyreactivity
6 | QVQLVESGGGLVQAGGSLRLSCAASGRISVFYAMGWYRQAPGKERELVAAITRSGTTKYADSVKGRFTISRDNAKNTVYLQMNSLKPEDTAVYYCAADSSRFFYGVYNYRQYGYWGQGSQVTVSS | high polyreactivity
7 | QVQLVESGGGLVQAGGSLRLSCAASGRISVVNAMGWYRQAPGKERELVATINRGGSTYADSVKGRFTISRDNAKNTVYLQMNSLKPEDTAVYYCAATSFSVRFTRYYYWGQGTQVTVSS | high polyreactivity
8 | QVQLVESGGGLVQAGGSLRLSCAASGRISYRNAMGWYRQAPGKERELVATITNGGSTYYADSVKGRFTISRDNAKNTVYLQMNSLKPEDTAVYYCAKEVWNWGPYYYWGQGTQVTVSS | low polyreactivity
9 | QVQLVESGGGLVQAGGSLRLSCAASGRITFSHNTMGGSRQAPGKERELVAAISSGGRTNYADSVKGRFTISRDNAKNTVYLQMNSLKPEDTAVYYCARESHYDFIYDGMDYWGQGTQVTVSS | low polyreactivity
10 | QVQLVESGGGLVQAGGSLRLSCAASGRIVCYYDMGWSRQAHGKERELVATITFGGGSTYYADSVKGRFTISRDNAKNTVYLQMNSLKPEDTAVYYCAADSGYLGIYGDEYSSGQGTQVTVSS | low polyreactivity
11 | QVQLVESGGGLVQAGGSLRLSCAASGRIVGYAMGWYRQAPGKERELVAAITGSTGSTYYADSVKGRFTISRDNAKNTVYLQMNSLKPEDTAVYYCATKYGRYVYYNHVTWMYYWGQGTQVTVSS | high polyreactivity
12 | QVQLVESGGGLVQAGGSLRLSCAASGRIVHQYAMGWNRQAPGKERELVAAITTRGTSTYYADSVKGRFTISRDNAKNTVYLQMNSLKPEDTAVYYCAAKFFGSVGHVAGDYWGQGTLVTVSS | high polyreactivity
13 | QVQLVESGGGLVQAGGSLRLSCAASGRIVRYYTMGWYRQAPGKEREFVAAITLSGGRTYYADSVKGRFTISRDNAKNTVYLQMNSLKPEDTAVYYCAKRYVWGDKRYWQGYDYWGQGTQVSVSS | high polyreactivity
14 | QVQLVESGGGLVQAGGSLRLSCAASGRIVSKYALGWYRQAPGKERELVAAISNGGSTNYADSVKGRFTISRDNAKNTVYLQMNSRKPEDTAVYYCAAGWPARYEEGYNYWGQGTQVTVST | low polyreactivity
15 | QVQLVESGGGLVQAGGSLRLSCAASGRIVSRYAMGCYRQAPGKERELVADISSSGGSTYYADSVKGRFTISRDNAKNTVYLQMNSMKPEDTAVYDCAVRKKRQYTGDYWGQGTQETVSS | high polyreactivity
16 | QVQLVESGGGLVQAGGSLRLSCAASGRIVTDSAMGWYSQAPGKDREFVAAIRRSGGSTYYAGCVKGRCTISRDTANNTVYLQMNSLKPEDTAVYYCAARGATSYYIFHSWGQGTQVTVSS | high polyreactivity
17 | QVQLVESGGGLVQAGGSLRLSCAASGRIVVGYVMGWYRQSPGKERELVADIRSRGDSTYYADSVKGRFTISRDNAKNTVYLQMNSLKPEDTAVYYCNVLGYSYWGQGTQVTVSS | high polyreactivity
18 | QVQLVESGGGLVQAGGSLRLSCAASGRIVVYNVMGGYRQAPGKERELVAAISWGTGSTYADSVKGRFTISRDNAKNTVYIQMNSLKPEDTAVYYCAADSFIPPYDHWGQGTQVTVSS | low polyreactivity
19 | QVQLVESGGGLVQAGGSLRLSCAASGRIVWFYTMGWYRQAPGKERELVAAISDSAGSTYYADSVKGRFTISRDNAKNTVYLQMNSLKPEDTAVYYCAADGWWQYDYWGQGTQVTVSS | low polyreactivity
20 | QVQLVESGGGLVQAGGSLRLSCAASGRIYCGYTMGWYRPAPGKERELDATITGNGAITRYADSVKGRFTISRDNAKYTVYLQMTSLKPEDTAVYYCAADSGREPKGPFRLTYWGQGTQVTVSS | high polyreactivity
21 | QVQLVESGGGLVQAGGSLRLSCAASGRIYDDNAMGWYRQAPGKERELVAAISSGDSTKYADSVKGRFTISRDNAKNTVYLQMNSLKPDDTAVYSCAAERNHGLVGSESVGRNDYWGPGTQVTVSS | low polyreactivity
22 | QVQLVESGGGLVQAGGSLRLSCAASGRIYDYMAWYRQAPGKERELVAAISWRGGRTYYADSVKGRFTISRDNAKNTVYLQMNSLKPEDTAVYYCAAKTTYRYGYWGQGSQVTVSS | high polyreactivity

Row | Sequence | polyreactivity (PSR sort gate)
23 | QVQLVESGGGLVQAGGSLRLSCAASGRIYDYYTMGWYRQAPGKERELVAAITWIGGSTYYADSVKGRFTISRDNAKNTVYLQMNSLKPEDTAVYYWNAEGTALPYRADTVGGYYYWGQGTQVTVSS | low polyreactivity
24 | QVQLVESGGGLVQAGGSLRLSCAASGRIYGGYAMGWYRQAPGKERELVAAISSRGGSTYYADSVKGRFTISRDNAKNTVYFQMNSLKPEDTAVYYFADDGRVKGWGQGTQVTVSS | high polyreactivity
25 | QVQLVESGGGLVQAGGSLRLSCAASGRIYGIYAMGWYRQAPGKERDLVARITGGGSTNYADSVKGRFTISRDNAKYTVYLQMNSLKPEDTAVYYCAATVRRIVGNITRYDYWGQGTQVTVSS | low polyreactivity
26 | QVQLVESGGGLVQAGGSLRLSCAASGRIYIGNAMGWYRQAPGKERELVAAISKRGGSTYYADSVKGRFTISRDNAKNTVYLQMKSLKAEDTAVYYCIKESLYREFDYLGQGTQVTVSS | low polyreactivity
27 | QVQLVESGGGLVQAGGSLRLSCAASGRIYNYYAMGWYIPAPGKERELVAAISSSGGRTYYADSVKGRFTISRDNAKNTVYLQMNSLKPEDTAVYYCAAYDSLRYSTYDYWGQGTQVTVSS | high polyreactivity
28 | QVQLVESGGGLVQAGGSLRLSCAASGRIYPAYAMGWSRQAPGKERELVASIRRGGITYADSVKGRFTISRDNAKNTVYLQMNSLKPEDTAVYYCNADYRGWGYHMDYWGQGTQVTVSS | low polyreactivity
29 | QVQLVESGGGLVQAGGSLRLSCAASGRIYPYYDMGWYRQAPGKERELVAAITSGTGTYYADSGKGRVTLSRDNAKTTVYFQMYSLKPEDTAVYYCNARRYLRGYWGQGTQVTLSS | low polyreactivity
30 | QVQLVESGGGLVQAGGSLRLSCAASGRIYRGYAMGWYRQAPRKERELFARITSGGRTYYADSVKGRFTISRDNAMNTVYLQMISLKPEDTAVYYCATVGGGYDERHNYWGQWTQVTVSS | high polyreactivity
31 | QVQLVESGGGLVQAGGSLRLSCAASGRIYRYYAMGWYRQAPGKEREFVAAISYRGASTFYADSVKGRFTISRDNAKNTVYLQMNSLKPEDTAVYYCATDTRIRYQGNPYDYWGQGTQVTVSS | high polyreactivity
32 | QVQLVESGGGLVQAGGSLRLSCAASGRIYSYYAMGWYRQAPGKERELVAGIRSGGSTNYADSVKGRFTISRDNAKNTVYLQMNSLKPEDTAVYYCAARWTRWTSKRFEYWGQGTQVTVSS | high polyreactivity
33 | QVQLVESGGGLVQAGGSLRLSCAASGRIYTHYAMGWYRQAPGKERELVAAISYRGGSTYYADSVKGRFTISRDNAKNTVYLQMNRLKPEATAVYYCNKYRFVYSLDDYWGQGIQVTVSS | high polyreactivity
34 | QVQLVESGGGLVQAGGSLRLSCAASGRIYVIYGMGWYRQAPGKERELVATISWSGSSTSYADSVKGRFTISRDNAKNTVYLQMNSLKHEDTAVYYCNAPVQSETFDYWGQGTQVTVSS | high polyreactivity
35 | QVQLVESGGGLVQAGGSLRLSCAASGRIYVNAMGWYRQAPGKERELVAAIRSGGSTNYADSVKGRFTISRDNAKNTVYLQMNSLKPEDTAVYYCNARRRDYRHWYDYWGQGTQVTVSS | high polyreactivity
36 | QVQLVESGGGLVQAGGSLRLSCAASGRIYWNDMGWYRQAPGKERELVAAISWGGDRTYYADSVKGRFTISRDNAKNSFYLQMNSLKPEDTAVYYFNAPGYLTYDHSYDYWGQGTQVTVSS | low polyreactivity
37 | QVQLVESGGGLVQAGGSLRLSCAASGRIYWNTMGWYIQAPGKERELVASISTGGGRTYYADSVKGRFTISRDNAKNTVYLQMNSLKPEDTAVYYCAVRSYGHGFDYWGQGTQVTVSS | high polyreactivity
38 | QVQLVESGGGLVQAGGSLRLSCAASGRIYWNTMGWYRQAPWKEREMVASISTGCGRTYYADSVKGRFTISRDNAKNTVYLQMHSLKPEDTSVYYCNAVRTVWYRYEYGYWGQGTQVTVSS | high polyreactivity
39 | QVQLVESGGGLVQAGGSLRLSCAASGRIYWSYDMGWNRQAPVKERELVASITSDGSTNYADSVKGRFTISRDNAKNTVYLQMNSLKPEDTAVYYCAARPYKYDPFAQGDGGKYDYWGQGTQVTVSS | low polyreactivity
40 | QVQLVESGGGLVQAGGSLRLSCAASGRIYYQYAMGWYRQAPGKERELVAAITRGGNTYYADSVKGRFTISRDNAKNTVYLQMNSLKPEDTAVYYCNARWHTTGYRYDYWGQGTQVTVSS | high polyreactivity
41 | QVQLVESGGGLVQAGGSLRLSCAASGRLFYSYAMGWYRQAPGKERELVAAIGRGGGTTYADSVKGRFTISRDNAKNTVYLQMNSLKPEDTAVYYCAADWHSTPRHTMDYWGQGTQVTVSS | low polyreactivity
42 | QVQLVESGGGLVQAGGSLRLSCAASGRNFAGYAMLWYRQAPGKERELVATISSGGSTYYADSVKGRFTISRDNAKNTVYLQKNSLKPEDTAVYYCAAEYGTRQYSSYYKLFNYWGQGTQVTVSS | low polyreactivity
43 | QVQLVESGGGLVQAGGSLRLSCAASGRNFCVYAMGWYRHDHGKERELVAAISYDDGDTFYADSVKGRFTISRDNAKNTVYLQMNSLKPDDTAVYYCDAEGYSYIQSDLDYCGQGTQVTVSS | high polyreactivity
